Measurements published in article PMC4768256, “Using mutagenesis to explore conserved residues in the RNA-binding groove of influenza A virus nucleoprotein for antiviral drug development” (Scientific Reports, 2016).
Read-outs that look alike come from different tables or passages of the source.

What was measured:
[1] = biological target: NP WT (Influenza A virus A/TW/12/2001 (H1N1)) (UniProt Q07FI1); experiment: SPR
[2] = biological target: NP WT (Influenza A virus A/TW/12/2001 (H1N1)) (UniProt Q07FI1); experiment: SPR; remark: listed apart in the source

NP WT (Influenza A virus A/TW/12/2001 (H1N1)), sequence (Q07FI1 whole entry): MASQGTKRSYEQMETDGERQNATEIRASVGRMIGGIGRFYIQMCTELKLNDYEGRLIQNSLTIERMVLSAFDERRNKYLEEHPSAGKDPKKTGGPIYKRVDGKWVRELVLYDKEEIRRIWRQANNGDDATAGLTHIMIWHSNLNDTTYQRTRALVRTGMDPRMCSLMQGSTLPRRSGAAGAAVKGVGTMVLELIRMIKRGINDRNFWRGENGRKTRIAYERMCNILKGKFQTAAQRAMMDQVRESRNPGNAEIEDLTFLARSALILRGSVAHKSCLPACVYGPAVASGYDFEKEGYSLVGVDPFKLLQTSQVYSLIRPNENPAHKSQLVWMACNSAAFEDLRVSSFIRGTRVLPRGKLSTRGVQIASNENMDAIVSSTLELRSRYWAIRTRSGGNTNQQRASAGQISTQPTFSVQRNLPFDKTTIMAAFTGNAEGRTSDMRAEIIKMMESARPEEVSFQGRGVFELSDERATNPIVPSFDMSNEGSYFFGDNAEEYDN

UCCAAACUCCAAACUCCAAACUCCAAAC [(UCCAAAC)4 RNA]
Kd [1]: 8.27 nM | Kd [2]: 10.4 nM
